Measurements as given in IntAct's records for PubMed 24997600.

B1: Regulation of nuclear pre-mRNA domain-containing protein 1B (Homo sapiens), Q9NQG5 (parent)
chain: MSSFSESALEKKLSELSNSQQSVQTLSLWLIHHRKHAGPIVSVWHRELRKAKSNRKLTFLYLANDVIQNSKRKGPEFTREFESVLVDAFSHVAREADEGCKKPLERLLNIWQERSVYGGEFIQQLKLSMEDSKSPPPKATEEKKSLKRTFQQIQEEEDDDYPGSYSPQDPSAGPLLTEELIKALQDLENAASGDATVRQKIASLPQEVQDVSLLEKITDKEAAERLSKTVDEACLLLAEYNGRLAAELEDRRQLARMLVEYTQNQKDVLSEKEKKLEEYKQKLARVTQVRKELKSHIQSLPDLSLLPNVTGGLAPLPSAGDLFSTD

Variants of: B1
Conditions: with rpb1_human POLR2A

effect of a mutation on the interaction | Variant
disrupting interaction strength | R114A
